From patent US20110218114A1, “NUCLEOTIDE TRIPHOSPHATE WITH AN ELECTROACTIVE LABEL CONJUGATED TO THE GAMMA PHOSPHATE” (priority 2007, published 2011) come the findings set out here.

Holding throughout (format): biochemical
For one experiment, the target named is T1, Abl1-T315I (Homo sapiens, UniProt P00519, T315I).
T1 construct: purchased Cell Signalling Technology (MA, USA)
Kind of experiment: Electrochemical (CV) Fc-ATP phosphorylation assay, substrate peptide immobilized on gold microelectrode, Abl1-T315I. The note with it: for phosphorylation of immobilized peptide by Abl1-T315I (anodic current response): control peptides, HeLa cell lysate, FIG. 12C. As to the method: (§1) The covalent immobilization of substrate peptides on the gold microelectrode surface using succinimide-esters of lipoic acid included the following steps: (a) incubation of the bare gold microelectrode with 5 mM NHS-lipoic acid ester in ethanol for 15 h; (b) incubation of the N-Hydroxysuccinimide (NHS)-lipoic acid-modified surface with the substrate peptides in the presence of 2 mM N-(3-Dimethylaminopropyl)-N′-ethylcarbodiimide (EDC) in 0.1 M 2-(N-Morpholino) ethanesulfonic acid (MES, pH 6) for 2 h, (c) incubation of the peptide-modified electrodes with Mercaptopolyethylene glycol 5′000 monomethyl ether (PEG-thiol 5′000) solution (1:100 v/v) in ethanol for 10 min.
Abl1-T315I kinase assay buffer included 60 mM HEPES (pH 7.5), 5 mM MgCl2, 5 mM MnCl2, 3 μM Na3VO4, 400 μM ATP, peptide substrate (STP) and the kinase in a total reaction volume of 25 μL. Purified recombinant human Abl1-T315I mutant kinase and its substrate peptide Signal Transduction Protein (STP, EGIYDVP) were purchased from Cell Signalling Technology (MA, USA). The substrate peptide modified electrodes were incubated at 37° C. for 2 h. After following the same washing procedures as for CK2, the CV measurements were recorded using the same parameters as described above.
(§2) The electrochemical data from the CV measurements are obtained as charge density (J) per test. […] Here, the detailed description of the calculation procedure will be given for CK2-catalysed phosphorylation reactions. The reaction volume is 25 μL, which leads to 2.5 nmole Fc-ATP per test. Then, the specific electro-activity (SE) of Fc-ATP (J/nmole Fc-ATP) would be calculated as follows: […]
(§3) where V is the rate, V0 is the rate in the absence of the inhibitor, [I] is the inhibitor concentration and Ki′ is the apparent inhibition constant.
(§4) where [S] is the surface density of the immobilized substrate peptide and Km is the Michaelis-Menten constant. The surface density conditions of the immobilized substrate peptide were changed between 1, 5, 10, 15 and 20 pmol/cm2. The initial time dependence of the kinase reactions were determined at these varying peptide density conditions. The phosphorylation reaction was stopped after 5, 15, 30, 60, 90, 120 and 150 min, and the measurement of the attached Fc molecules was carried out. […] If the y is set for 0 and the equation is solved for x, x intercept becomes equal to −1/Km.

A further experiment addresses CK2α′ (Homo sapiens, UniProt P19784). Kind of experiment: Electrochemical (CV) Fc-ATP phosphorylation assay, substrate peptide immobilized on gold microelectrode, CK2α′. The protocol: as §1
(§5) The substrate peptide modified electrodes were incubated at 37° C. for 2 h.
(§6) The electrochemical data from the CV measurements are obtained as charge density (J) per test. The concentration of Fc-ATP for the kinase activity determinations was 100 μM, for CK2 and 200 μM for Abl1-T315I and HER2-ErbB2. Here, the detailed description of the calculation procedure will be given for CK2-catalysed phosphorylation reactions. The reaction volume is 25 μL, which leads to 2.5 nmole Fc-ATP per test. Then, the specific electro-activity (SE) of Fc-ATP (J/nmole Fc-ATP) would be calculated as follows: […]
(§7) The apparent inhibition constants Ki′ were determined by fitting equation (3) to the experimental data.
(§8) where V is the rate, V0 is the rate in the absence of the inhibitor, [I] is the inhibitor concentration and Ki′ is the apparent inhibition constant. The true inhibition constants Ki were calculated by correction of Ki′ according to Equation (4): […]
as §4

The next experiment has as its target T2, HER2/ErbB2 (Homo sapiens, UniProt P04626).
T2 construct: purchased Cell Signalling Technology (MA, USA)
The experiment in a line: Electrochemical (CV) Fc-ATP phosphorylation assay, substrate peptide immobilized on gold microelectrode, HER2/ErbB2. The settings on record: for phosphorylation of immobilized peptide by HER2/ErbB2 (anodic current response): control peptides, FIG. 13C. As to the method:
as §1, §6, §7, §8, §4

The target in the next experiment is CK2α (Homo sapiens, UniProt P68400). Kind of experiment: Electrochemical (CV) Fc-ATP phosphorylation assay, substrate peptide immobilized on gold microelectrode, CK2α. The protocol:
as §1, §5, §2, §3, §4

[1] abbreviates: CK2α′, immobilized substrate peptide, Lineweaver-Burk.
Where [2] appears, read: Abl1-T315I, immobilized substrate peptide, Lineweaver-Burk.
Setting [3] is: HER2/ErbB2, immobilized substrate peptide, Lineweaver-Burk.

CK2α′, sequence (P19784 whole entry): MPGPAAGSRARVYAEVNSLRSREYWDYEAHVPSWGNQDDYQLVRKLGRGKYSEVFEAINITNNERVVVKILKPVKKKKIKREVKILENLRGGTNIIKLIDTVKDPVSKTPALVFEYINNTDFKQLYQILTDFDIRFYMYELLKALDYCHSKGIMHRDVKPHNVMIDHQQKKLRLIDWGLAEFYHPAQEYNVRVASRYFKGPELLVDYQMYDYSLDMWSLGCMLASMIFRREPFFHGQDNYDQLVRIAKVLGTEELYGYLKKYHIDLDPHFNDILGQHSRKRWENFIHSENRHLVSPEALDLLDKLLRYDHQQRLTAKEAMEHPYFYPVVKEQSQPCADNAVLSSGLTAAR
CK2α, sequence (P68400 whole entry): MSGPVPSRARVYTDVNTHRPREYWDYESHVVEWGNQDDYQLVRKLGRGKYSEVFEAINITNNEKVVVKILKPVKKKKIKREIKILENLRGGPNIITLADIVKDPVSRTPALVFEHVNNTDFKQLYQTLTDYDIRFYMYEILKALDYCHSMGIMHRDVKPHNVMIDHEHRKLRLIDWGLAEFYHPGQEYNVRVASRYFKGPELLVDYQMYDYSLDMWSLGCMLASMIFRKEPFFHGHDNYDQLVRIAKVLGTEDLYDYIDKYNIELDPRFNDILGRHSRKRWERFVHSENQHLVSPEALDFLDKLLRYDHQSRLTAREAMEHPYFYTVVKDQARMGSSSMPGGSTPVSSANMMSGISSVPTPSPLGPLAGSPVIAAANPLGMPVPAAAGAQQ

By Km is commonly meant the substrate concentration at which the rate is half of its maximum. The term Vmax denotes the rate approached at saturating substrate. On to RRRDDDSDDD [CK2 peptide substrate], for which the “phosphorylation of immobilized peptide by Abl1-T315I (anodic current response)” value with Abl1-T315I is “did not catalyze phosphorylation”; with Abl1-T315I (listed as CK2 substrate peptide), “No significant current responses”. For the same molecule, the Vmax/Kmax in the experiment with CK2α′ (CK2α′, immobilized substrate peptide) was found to be 18.16; with CK2α it was 22.64. For the same molecule, the Km in the experiment with CK2α′ (setting [1]) stood at 98 µM; in the experiment with CK2α (Lineweaver-Burk), 87 µM. Also, the maximal velocity (Vmax) in the experiment with CK2α′ (setting [1]) is 1.78 µmol/min/mg; in the experiment with CK2α (Lineweaver-Burk) it was 1.97 µmol/min/mg. For the same molecule, the “phosphorylation of immobilized peptide by HER2/ErbB2 (anodic current response)” value in the experiment with HER2/ErbB2 was “did not catalyze phosphorylation”.
For the molecule “EGIYDVP [Abl1-T315I substrate peptide Signal Transduction Protein]”, the Vmax/Kmax with Abl1-T315I (Abl1-T315I, immobilized substrate peptide) is listed as 9.18. Moreover, in the experiment with Abl1-T315I (setting [2]), the Km was 182 µM and the maximum rate (Vmax) amounted to 1.67 µmol/min/mg. Moreover, the “phosphorylation of immobilized peptide by CK2 (current response)” value with CK2α′ (control peptide in presence of cell lysate, FIG. 10B-c) is on record as “did not catalyze phosphorylation”. Further, in the experiment with HER2/ErbB2, the “phosphorylation of immobilized peptide by HER2/ErbB2 (anodic current response)” value was “slight increase in the current responses”.
For `Brc1c(Br)c(Br)c2[nH]nnc2c1Br` [(1), 4,5,6,7-Tetrabromo-2-azabenzimidazole], the “inhibition of EGIYDVP phosphorylation (specificity control)” value against Abl1-T315I (EGIYDVP peptide exposed to inhibitor, FIG. 11C-b) is reported as “not inhibited”.
Turning to “DNEYFYV [FLT3 substrate peptide for HER2/ErbB2]”, the “phosphorylation of immobilized peptide by Abl1-T315I (anodic current response)” value in the experiment with Abl1-T315I is on record as “Low current responses”. Further, the Vmax/Kmax with HER2/ErbB2 (HER2/ErbB2, immobilized substrate peptide) worked out at 7.41. For the same molecule, in the experiment with HER2/ErbB2 (setting [3]), the Km was found to be 208 µM and the maximal velocity (Vmax) came out at 1.54 µmol/min/mg.
